From patent US20030119038A1, “NARC1, novel subtilase-like homologs” (priority 1999, published 2003)

Columns and labels:
[1] = tested on: furin; details: Bathurst (1987); cited from earlier work
[2] = tested on: Caspase 9 transfection; details: 24-hour exposure
From the text: (§1) The serine protease inhibitors Aminoethyl-benzene sulfonyl fluoride, an irreversible inhibitor (AEBSF), Aprotinin, a reversible inhibitor, and N-Tosyl-lysine-chloromethylketone (TLCK, an inhibitor known to covalently bind to serine proteases) were investigated to see if any of these reagents can rescue the cell death effects of wild-type NARC1. Caspase 9 transfection was included to test for specificity of any rescue effects.

[3] = tested on: NARC1 transfectants
Description: Following transient expression of this construct in CGNs, the percentage of GFP positive and GFP negative cells undergoing apoptosis was determined by Laser-Scanning Cytometry.
Following transient expression of the wild-type and point-mutant NARC1 constructs in CGNs, the percentage of GFP-positive cells undergoing apoptosis was determined by Laser-Scanning Cytometry.
as §1
CGNs were transfected with each of the C-terminal truncation mutants described above. Following transient expression of these constructs, the percentage of GFP positive cells undergoing apoptosis was determined by Laser-Scanning Cytometry.

[4] = target: furin (Homo sapiens, UniProt P09958); details: cited from earlier work
[5] = target: T1, NARC1 (Rattus norvegicus, UniProt P59996); experiment: Autoprocessing of NARC1 expressed in E. coli
T1 construct: made in house; host or cells: E. coli
Description: The N-terminus of the processed protein was determined by protein microsequencing.

[6] = tested on: cerebellar granule neurons (CGNs); experiment: Apoptosis after transient expression of NARC1-EGFP constructs in CGNs, Laser-Scanning Cytometry; assay type: cell-based, rat; details: EGFP construct transiently expressed in CGNs, percentage of GFP-positive cells undergoing apoptosis
From the text: Cerebellar granule neurons (CGNs) were transfected with a NARC1-enhanced green fluorescent protein (EGFP) expression construct (with the EGFP sequences located at the carboxy terminus of the fusion protein). Unless otherwise indicated, the construct utilized in the following experiments contained 2073 base pairs of the rat NARC1 transcript set forth in FIG. 5. Specifically, this corresponds to nucleotides 205-2277 and amino acid residues 56-746 of SEQ ID NO:4 and SEQ ID NO:3, respectively. The polypeptide sequence encoded by the NARC1 insert utilized herein has been set forth as SEQ ID NO:9 herein. The nucleotide sequence of this insert has been set forth as SEQ ID NO:10.
To investigate NARC1-mediated neuronal cell death, transient expression of the EGFP clones was carried out in cerebellar granule neurons (CGNs). These studies are set forth in detail as follows.

[7] = tested on: SY5Y cells; experiment: NARC1 overexpression in SY5Y cells, nuclear condensation by Hoechst assay; assay type: cell-based, human
Description: Wild-type and mutant NARC1 were overexpressed in SY5Y cells (a human neuroblastoma cell line). Nuclear condensation was assessed by Hoechst assay.

[8] = tested on: NARC1; experiment: Autoprocessing of NARC1 transiently expressed in COS-7 cells, Western blotting; assay type: cell-based, rat
Description: The wild-type NARC1-myc/His clone was transiently expressed in COS-7 cells. The cells were then harvested, lysed, and the protein extracted. Polyacrylamide gel electrophoresis was then carried out on the protein extracts, followed by Western blotting. The resulting membranes were probed using both anti-myc- and NARC1-specific antibodies. Routine techniques and protocols were followed. See, e.g., Ausubel et al.(1998), supra.
This cleavage event maps to approximately the junction between the pro-domain and the enzymatic domain.
Autoprocessing of NARC1 was investigated as follows. COS-7 cells were co-transfected with the following EGFP and myc plasmids: (A) wild-type NARC1-myc and wild-type NARC1-EGFP; (B) S385A NARC1-myc and S385A NARC1-EGFP; and (C) wild-type NARC1-myc and S385A NARC1-myc. The cells were then harvested, lysed, and the protein extracted. Polyacrylamide gel electrophoresis was then carried out on the protein extracts, followed by Western blotting. The resulting membranes were sequentially probed using first the anti-myc and then the anti-EGFP monoclonal antibodies (Abs). Thus, the experiment allowed sequential detection of the separate NARC1 products encoded from the two co-transfected plasmids.
As indicated above, a series of C-terminal truncation mutants were generated. The truncation NARC1-myc/His clones were transiently expressed in COS-7 cells. The cells were then harvested, lysed, the protein extracted, and polyacrylamide gel electrophoresis carried out on the protein extracts. Western analysis was then carried out using both anti-myc and NARC1-specific antibodies.

[9] = tested on: Ntera2 cells; experiment: NARC1-EGFP transfection of Ntera2 cells, nuclear area condensation; assay type: cell-based, human; details: C-terminal EGFP constructs, 24 hours
Description: Specifically, Ntera2 cells were transfected with C-terminal EGFP constructs of wild-type NARC1, each of the point-mutant NARC1s, and caspase 9. At 24 hours, nuclear area condensation was assessed for the entire Ntera2 cell population and compared to nuclear area condensation for the transfected cell population.

furin (Homo sapiens, UniProt P09958), sequence (P09958 108-794, species assumed): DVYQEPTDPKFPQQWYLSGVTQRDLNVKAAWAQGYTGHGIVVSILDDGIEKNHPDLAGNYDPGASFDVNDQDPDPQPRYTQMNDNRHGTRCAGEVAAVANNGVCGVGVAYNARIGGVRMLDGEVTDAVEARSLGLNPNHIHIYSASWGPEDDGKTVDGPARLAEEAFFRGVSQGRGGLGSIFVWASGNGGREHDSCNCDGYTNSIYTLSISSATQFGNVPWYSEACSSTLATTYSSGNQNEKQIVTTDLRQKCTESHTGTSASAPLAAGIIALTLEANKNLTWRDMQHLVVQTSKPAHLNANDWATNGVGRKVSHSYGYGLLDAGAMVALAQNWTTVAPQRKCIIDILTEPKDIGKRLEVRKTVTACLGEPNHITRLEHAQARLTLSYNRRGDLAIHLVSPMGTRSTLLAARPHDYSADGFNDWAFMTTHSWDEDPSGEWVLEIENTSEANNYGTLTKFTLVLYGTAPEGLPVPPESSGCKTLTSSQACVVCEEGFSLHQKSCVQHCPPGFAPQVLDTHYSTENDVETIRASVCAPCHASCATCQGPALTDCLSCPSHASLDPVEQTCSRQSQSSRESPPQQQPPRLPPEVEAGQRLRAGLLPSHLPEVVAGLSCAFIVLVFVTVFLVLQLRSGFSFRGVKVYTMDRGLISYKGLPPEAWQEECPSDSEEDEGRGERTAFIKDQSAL

## variant of α1-antitrypsin: α1-antitrypsin variant with replacement of the reactive-site MET residue by ARG; protein-based furin inhibitor
[1]
  Inhibition of in vitro conversion of proalbumin: inhibit the in vitro conversion of proalbumin

## Aminoethyl-benzene sulfonyl fluoride [AEBSF]
[2]
  Rescue of Caspase 9-induced cell death: substantial rescue
[3]; 24-hour exposure
  Rescue of cell death in NARC1 transfectants: dose-dependent rescue of cell death
[3]; 48-hour exposure
  Toxicity: appeared toxic

## α1-PDX: α1-antitrypsin variant in which reactive center ALA-ILE-PRO-MET is replaced by ARG-ILE-PRO-ARG
[4]
  Inhibition of cleavage of viral envelope glycoproteins, including HIV gp160: inhibit the cleavage of viral envelope glycoproteins

B1: wild-type NARC1: rat NARC1 subtilase-like protein, residues 56-746 of SEQ ID NO:3, expressed as C-terminal EGFP or myc/His fusion (protein)
chain: MGIRCSTWLRWPLSPQLLLLLLLCPTGSRAQDEDGDYEELMLALPSQEDSLVDEASHVATATFRRCSKEAWRLPGTYVVVLMEETQRLQVEQTAHRLQTWAARRGYVIKVLHVFYDLFPGFLVKMSSDLLGLALKLPHVEYIEEDSLVFAQSIPWNLERIIPAWQQTEEDSSPDGSSQVEVYLLDTSIQSGHREIEGRVTITDFNSVPEEDGTRFHRQASKCDSHGTHLAGVVSGRDAGVAKGTSLHSLRVLNCQGKGTVSGTLIGLEFIRKSQLIQPSGPLVVLLPLAGGYSRILNTACQRLARTGVVLVAAAGNFRDDACLYSPASAPEVITVGATNAQDQPVTLGTLGTNFGRCVDLFAPGKDIIGASSDCSTCYMSQSGTSQAAAHVAGIVAMMLNRDPALTLAELRQRLILFSTKDVINMAWFPEDQRVLTPNRVATLPPSTQETGGQLLCRTVWSAHSGPTRTATATARCAPEEELLSCSSFSRSGRRRGDRIEAIGGQQVCKALNAFGGEGVYAVARCCLLPRVNCSIHNTPAARAGPQTPVHCHQKDHVLTGCSFHWEVENLRAQQQPLLRSRHQPGQCVGHQEASVHASCCHAPGLECKIKEHGIAGPAEQVTVACEAGWTLTGCNVLPGASLPLGAYSVDNVCVARIRDAGRADRTSEEATVAAAICCRSRPSAKASWVHQ
modifications: C-terminal EGFP or myc/His tag; rattus norvegicus
[5]
  Autoprocessing: underwent autoprocessing
[6]
  Resulting Cell Death Activity: moderately pro-apoptotic
[6]; listed as NARC1-EGFP
  Resulting Cell Death Activity: increase in apoptosis
[7]
  Promotion of cell death (nuclear condensation): does not promote cell death
[8]; C-terminal myc/His fusion transiently expressed in COS-7 cells, 60 kD processing product on Western blot
  Autoprocessing Activity: normal autoprocessing
[8]; COS-7 cells co-transfected with wild-type and S385A NARC1 carrying different tags, anti-myc then anti-EGFP Western
  Intermolecular cleavage of co-expressed S385A mutant: absence of intermolecular cleavage
[9]
  Sensitivity of cells to expression (nuclear area condensation): some sensitivity
